In patent US20220162323A1 (Regeneron, published 2022):

T1: FGFR2b on SNU-16 and MFM-223 cells (human, UniProt P21802 22-821)
T1 chain: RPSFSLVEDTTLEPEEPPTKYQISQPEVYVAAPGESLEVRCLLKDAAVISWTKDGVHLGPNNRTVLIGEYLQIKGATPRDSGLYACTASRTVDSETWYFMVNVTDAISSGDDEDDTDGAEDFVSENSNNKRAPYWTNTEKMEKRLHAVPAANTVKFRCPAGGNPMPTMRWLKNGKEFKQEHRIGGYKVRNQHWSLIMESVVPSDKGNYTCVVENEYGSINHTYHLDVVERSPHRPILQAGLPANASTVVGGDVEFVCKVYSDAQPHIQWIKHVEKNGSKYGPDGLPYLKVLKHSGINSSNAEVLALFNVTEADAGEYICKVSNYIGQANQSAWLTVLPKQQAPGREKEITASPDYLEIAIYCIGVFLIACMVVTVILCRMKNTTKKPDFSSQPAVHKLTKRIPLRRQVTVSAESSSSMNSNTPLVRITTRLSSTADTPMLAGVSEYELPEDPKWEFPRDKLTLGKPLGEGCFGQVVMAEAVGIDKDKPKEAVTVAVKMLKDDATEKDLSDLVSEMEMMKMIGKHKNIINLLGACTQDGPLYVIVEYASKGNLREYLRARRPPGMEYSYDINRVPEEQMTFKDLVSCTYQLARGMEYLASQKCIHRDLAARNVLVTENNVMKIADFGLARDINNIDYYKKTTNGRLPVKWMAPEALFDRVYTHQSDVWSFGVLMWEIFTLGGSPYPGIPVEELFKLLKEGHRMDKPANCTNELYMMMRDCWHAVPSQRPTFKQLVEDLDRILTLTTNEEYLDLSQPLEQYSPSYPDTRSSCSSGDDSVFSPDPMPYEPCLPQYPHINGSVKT

T2: hFGFR2b.mmh (human)
T2 construct: also called Human FGFR2b with C-terminal myc-myc-hexahistidine tag
T2 chain: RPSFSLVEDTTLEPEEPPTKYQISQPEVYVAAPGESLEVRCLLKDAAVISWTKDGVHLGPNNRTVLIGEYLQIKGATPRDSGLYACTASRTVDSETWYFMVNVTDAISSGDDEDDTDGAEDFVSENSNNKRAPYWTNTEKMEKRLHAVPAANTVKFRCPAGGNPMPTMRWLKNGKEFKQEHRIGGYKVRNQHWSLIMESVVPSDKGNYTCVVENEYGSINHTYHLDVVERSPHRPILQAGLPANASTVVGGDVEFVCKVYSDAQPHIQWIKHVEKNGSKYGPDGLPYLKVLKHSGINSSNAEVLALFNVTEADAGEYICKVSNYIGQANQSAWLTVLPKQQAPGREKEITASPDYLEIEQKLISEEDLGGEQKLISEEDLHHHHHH


How the values were obtained:
[1] = biological target: T1, FGFR2b on SNU-16 and MFM-223 cells; test: cell-based or functional assay
[2] = biological target: T1, FGFR2b on SNU-16 and MFM-223 cells; test: cell-based or functional assay
hFGFR2b.mmh [3] = biological target: T2, hFGFR2b.mmh; test: SPR (Biacore), ADC captured by anti-human Fc, hFGFR2b-MMH as analyte, 25 C
Procedure: (§1) The equilibrium dissociation constants (KD values) for hFGFR2b.mmh binding to anti-FGFR2 antibodies conjugated with Tubulysin (“tubulysin 1ALP”), Auristatin (“auristatin LP1”), or mc-VC-PAB-NMe-C3-May (“maytansinoid 1ALP”) were determined using a real-time surface plasmon resonance biosensor assay on a Biacore 2000 or a Biacore 4000 instrument. The Biacore sensor surface was derivatized by amine coupling with a monoclonal mouse anti-human Fc antibody (REGN2567 or Jackson Cat. No #109-005-098) to capture anti-FGFR2 ADC and parent unmodified antibodies expressed with human constant regions. Biacore binding studies were performed in HBS-EP running buffer (0.01M HEPES pH 7.4, 0.15M NaCl, 3 mM EDTA, 0.05% v/v Surfactant P20). Human FGFR2b and Human FGFR2c were prepared in-house expressing a C-terminal myc-myc-hexahistidine tag (hFGFR2b-MMH—SEQ ID NO: 57; hFGFR2c-MMH—SEQ ID NO: 58). […] Association of hFGFR2b-MMH or hFGFR2c-MMH to each of the captured ADCs and monoclonal antibodies was monitored for 4 minutes. Subsequently, dissociation was monitored for 10 minutes in HBS-EP running buffer. Anti-human Fc surface was regenerated by a brief injection of 20 mM H₃PO₄. All binding kinetic experiments were performed at 25° C. Kinetic association (kₐ) and dissociation (kd) rate constants were determined by fitting the real-time sensorgrams to a 1:1 binding model using Scrubber 2.0c curve fitting software. All sensorgrams were double referenced by subtracting buffer injection sensorgram signal from the corresponding analyte sensorgram, thereby removing artifacts caused by dissociation of the antibody from the capture surface. Binding dissociation equilibrium constants (KD) and dissociative half-lives (t½) were calculated from the kinetic rate constants as: […]

hFGFR2b.mmh [4] = biological target: T2, hFGFR2b.mmh; test: SPR (Biacore), antibody captured by anti-human Fc, hFGFR2b-MMH as analyte, 25 C
Procedure: as §1

hFGFR2c.mmh = biological target: T3, hFGFR2c.mmh (human, UniProt P21802 22-377); test: SPR (Biacore), antibody captured by anti-human Fc, hFGFR2c-MMH as analyte, 25 C
T3 construct: also called Human FGFR2c with C-terminal myc-myc-hexahistidine tag
Procedure: The equilibrium dissociation constants (KD values) for hFGFR2b.mmh binding to anti-FGFR2 antibodies conjugated with Tubulysin (“tubulysin 1ALP”), Auristatin (“auristatin LP1”), or mc-VC-PAB-NMe-C3-May (“maytansinoid 1ALP”) were determined using a real-time surface plasmon resonance biosensor assay on a Biacore 2000 or a Biacore 4000 instrument. The Biacore sensor surface was derivatized by amine coupling with a monoclonal mouse anti-human Fc antibody (REGN2567 or Jackson Cat. No #109-005-098) to capture anti-FGFR2 ADC and parent unmodified antibodies expressed with human constant regions. Biacore binding studies were performed in HBS-EP running buffer (0.01M HEPES pH 7.4, 0.15M NaCl, 3 mM EDTA, 0.05% v/v Surfactant P20). […] Association of hFGFR2b-MMH or hFGFR2c-MMH to each of the captured ADCs and monoclonal antibodies was monitored for 4 minutes. Subsequently, dissociation was monitored for 10 minutes in HBS-EP running buffer. […] Kinetic association (kₐ) and dissociation (kd) rate constants were determined by fitting the real-time sensorgrams to a 1:1 binding model using Scrubber 2.0c curve fitting software. […] Binding dissociation equilibrium constants (KD) and dissociative half-lives (t½) were calculated from the kinetic rate constants as: […]

Binder	IC50 (M), CellTiter-Glo cytotoxicity, MFM-223 cells, 6 days [1] [M]	IC50 (M), CellTiter-Glo cytotoxicity, SNU-16 cells, 6 days [1] [M]	Max % Kill, MFM-223 cells [1] [%]	Max % Kill, SNU-16 cells [1] [%]	IC50 (M), cytotoxicity, SNU-16 monoculture, 5 days (bystander assay) [2] [M]	Max % Kill, SNU-16 monoculture (bystander assay) [2] [%]	Antigen Bound (RU) (hFGFR2b.mmh [3])	t1/2 (hFGFR2b.mmh [3]) [min]	Kd (hFGFR2b.mmh [4]) [nM]	koff (hFGFR2b.mmh [4]) [s⁻¹]	kon (hFGFR2b.mmh [4]) [M⁻¹ s⁻¹]	t1/2 (hFGFR2b.mmh [4]) [min]	Kd (hFGFR2b.mmh [3]) [nM]	binding result (hFGFR2c.mmh)	Antigen Bound (RU) (hFGFR2b.mmh [4])	Antigen Bound (RU) (hFGFR2c.mmh)
mAb2-tubulysin 1ALP (antibody, V domains shown, deglycosylated; Q295 carries azido-PEG3-amine clicked to Tubulysin 1A-LP; DAR 2.1 per antibody, also called Anti FGFR2 mAb2-PEG3-N3-Tubulysin 1A-LP) VH: QVQLVESGGGVVQPGKSLRLSCAASGFTFSNYGMHWVRQTPVKGLEWVTLIWYDGSNKYYTDSVKGRFTISRDNSKNTLYLQMNSLRSEDTAVYYCAREGNWNYGHAFDIWGQGTMVTVSS VL: DIQMTQSPSTLSASVGDRVTITCRASQNIGNWLAWYQQKPGKAPNLLIYKASTLESGVPSRFSGSGSGTEFTLTISSLQPDDFATYNCQQYNSYSPTFGQGTKLEIKR	6.36e-11	3.7e-11	90	95.3	2.73e-11	97.2	32.7	9.8	–	–	–	–	–	–	–	–
mAb2 (antibody, V domains shown, also called anti-FGFR2 antibody mAb2; mAb2 (Unconjugated)) VH: QVQLVESGGGVVQPGKSLRLSCAASGFTFSNYGMHWVRQTPVKGLEWVTLIWYDGSNKYYTDSVKGRFTISRDNSKNTLYLQMNSLRSEDTAVYYCAREGNWNYGHAFDIWGQGTMVTVSS VL: DIQMTQSPSTLSASVGDRVTITCRASQNIGNWLAWYQQKPGKAPNLLIYKASTLESGVPSRFSGSGSGTEFTLTISSLQPDDFATYNCQQYNSYSPTFGQGTKLEIKR	–	–	–	–	–	–	–	–	8.92	0.000447	50100	25.8	–	–	–	–
mAb2-maytansinoid 1ALP (antibody, V domains shown, maytansinoid 1ALP (mc-VC-PAB-NMe-C3-May) linker-payload conjugated; residues not stated in Example 5; DAR 1.9 per antibody, it is written on the heavy chain only for want of a better place; also called FGFR2 maytansinoid ADC) VH: QVQLVESGGGVVQPGKSLRLSCAASGFTFSNYGMHWVRQTPVKGLEWVTLIWYDGSNKYYTDSVKGRFTISRDNSKNTLYLQMNSLRSEDTAVYYCAREGNWNYGHAFDIWGQGTMVTVSS VL: DIQMTQSPSTLSASVGDRVTITCRASQNIGNWLAWYQQKPGKAPNLLIYKASTLESGVPSRFSGSGSGTEFTLTISSLQPDDFATYNCQQYNSYSPTFGQGTKLEIKR	1.72e-10	2.06e-10	91.1	95	6.45e-10	94.8	31.3	13.1	–	–	–	–	12.8	–	–	–
mAb1-tubulysin 1ALP (antibody, human IgG4 S228P, kappa, V domains shown, deglycosylated; Q295 carries azido-PEG3-amine clicked to Tubulysin 1A-LP; DAR 2.1 per antibody, also called Anti FGFR2 mAb1-PEG3-N3-Tubulysin 1A-LP) VH: QVQLVESGGGVVQPGRSLRLSCAASGFTFSSYGMHWVRQAPGKGLEWVAVIWYDGSNKYYADSVKGRFTISRDNSKNTLYLQMNSLRAEDTAVYYCAREESSASGVDYWGQGTLVTVSS VL: EIVLTQSPGTLSLSPGERATLSCRASQSVSTRYLAWYQQKRGQAPRLLIYGASSRATGIPDRFSGSGSGTDFTLTISRLEPEDFAVYYCQEYGSSSITFGQGTRLEIKR	1.25e-10	4.34e-11	91.1	95.4	6.69e-11	97.1	36.4	7.4	–	–	–	–	–	–	–	–
mAb1-maytansinoid 1ALP (antibody, V domains shown, maytansinoid 1ALP (mc-VC-PAB-NMe-C3-May) linker-payload conjugated; residues not stated in Example 5; DAR 2.5 per antibody, it is written on the heavy chain only for want of a better place) VH: QVQLVESGGGVVQPGRSLRLSCAASGFTFSSYGMHWVRQAPGKGLEWVAVIWYDGSNKYYADSVKGRFTISRDNSKNTLYLQMNSLRAEDTAVYYCAREESSASGVDYWGQGTLVTVSS VL: EIVLTQSPGTLSLSPGERATLSCRASQSVSTRYLAWYQQKRGQAPRLLIYGASSRATGIPDRFSGSGSGTDFTLTISRLEPEDFAVYYCQEYGSSSITFGQGTRLEIKR	2.14e-10	2.68e-10	85.5	93.1	–	–	42.1	11.1	–	–	–	–	41.8	–	–	–
mAb1 (antibody, human IgG4 S228P, kappa, V domains shown, also called anti-FGFR2 antibody mAb1; mAb1 (Unconjugated)) VH: QVQLVESGGGVVQPGRSLRLSCAASGFTFSSYGMHWVRQAPGKGLEWVAVIWYDGSNKYYADSVKGRFTISRDNSKNTLYLQMNSLRAEDTAVYYCAREESSASGVDYWGQGTLVTVSS VL: EIVLTQSPGTLSLSPGERATLSCRASQSVSTRYLAWYQQKRGQAPRLLIYGASSRATGIPDRFSGSGSGTDFTLTISRLEPEDFAVYYCQEYGSSSITFGQGTRLEIKR	–	–	–	–	–	–	–	–	25	0.00104	41700	11.1	–	no binding (tested: 30 nM (highest concentration injected))	–	–
Comp1 (antibody, INN chains, looked up, V domains shown) VH: QVQLVQSGAEVKKPGSSVKVSCKASGYIFTTYNVHWVRQAPGQGLEWIGSIYPDNGDTSYNQNFKGRATITADKSTSTAYMELSSLRSEDTAVYYCARGDFAYWGQGTLVTVSS VL: DIQMTQSPSSLSASVGDRVTITCKASQGVSNDVAWYQQKPGKAPKLLIYSASYRYTGVPSRFSGSGSGTDFTFTISSLQPEDIATYYCQQHSTTPYTFGQGTKLEIK	–	–	–	–	–	–	–	–	60.8	0.00471	77400	2.5	–	–	68.3	0.6
